Results published in article PMC8406658.

Experiments:
[1] = target: Fc-tagged ACE2 recombinant protein (human) (UniProt Q9BYF1); test: BLI
[2] = target: ACE2 (angiotensin-converting enzyme II receptor), full length, expressed on U937 cells (human) (UniProt Q9BYF1); test: adhesion frequency assay (micropipette)

## SARS2-RBD^WT (receptor-binding domain of the SARS-CoV-2 spike, residues 333-527) (domain or fragment; other documents disagree on this pair)
[1]
  Kd: 66.7 nM
  koff: 0.0121 s⁻¹
  kon: 181000 M⁻¹ s⁻¹
[2]
  koff: 0.0569 s⁻¹
